Publication PMC2766095

Assays:
[1] = biological target: IL-33/ST2 complex (human) (UniProt Q01638); assay: ITC
[2] = biological target: ST2-Fc fusion protein (R&D Systems) (UniProt Q01638); assay: SPR
[3] = biological target: ST2 extracellular domain (ectodomain) (human) (UniProt Q01638); assay: ITC

IL-1 receptor accessory protein (IL-1RAcP) extracellular domain (from UniProt Q9NPH3 21-367)
Kd [1]: 76 nM | dH [1]: -11 kcal/mol | stoichiometry N [1]: 1

IL-33 E34K (ligand)
Kd [2]: 3.11 nM

human IL-33 (interleukin-33), recombinant mature IL-1-like form (ligand)
stoichiometry N [3]: 1
